pKd: −log10 of the molar value.
Target: STAT3 (protein used in the ELISA) (UniProt P42227)
Experiment: ELISA; documented protocol (ref. 44); which protein was coated and the conditions are not told

Becn1 (protein used in the ELISA) (from UniProt O88597 1-448) (natural protein)
pKd: 6.92

From paper PMC11785930
